From the DeepSol protein solubility set

experiment: soluble on expression in E. coli; label from the status in PepcDB or PDB records

| Sequence | soluble on expression in E. coli |
| --- | --- |
| MDQLWANRAASAEAAITERHLKKLWGLPGTQLGVVAWPPARKYTLFGTWHYWWQAHLLDCLVDAQVRDPQPERTTRIERQLRAHRLRNNLSWVNDYYDDMAWLALAIERAGRLAGVEKPTALRKLCDQFVTAWVPEDGGGIPWRKQDQFFNAPANGPAGIFLARYDDRLRRAQQMADWIDETLIDPDTHLVFDGIKAGSLVRAQYTYCQGVVLGLEVELAVRTQDPRHAPRVRRLVAAVDKEMTTDGVIKGAGGGDGGLFNGILARYLALVATTLPGETPEDIAARDTARTIVLKSARSAWDHRQTVDGLPLFSAFWDRNAEIPTAGGKEAEFVEGAVNASSVPERDLSVQLAGWMLMEAAHSVDSVDAEDAAGDQNGAGDGEVGHDENEDEELEHHHHHH | soluble |
| MDRENILKAVKEARSLAKPRNFTQSLDLIINLKELDLSRPENRLKEQVVLPNGRGKEPKIAVIAKGDLAAQAEEMGLTVIRQDELEELGKNKKMAKKIANEHDFFIAQADMMPLVGKTLGPVLGPRGKMPQPVPANANLTPLVERLKKTVLINTRDKPLFHVLVGNEKMSDEELAENIEAILNTVSRKYEKGLYHVKSAYTKLTMGPPAQIEK | soluble |
| MDRINGLSDEIICHILSFLPTKESALTSVLSKRWRNLFALTPNLHLVDDDLEVGGCGQTLIDFVDRVLAVSSNLPIREFSIKC | soluble |
| MDRKTRLSEPPTLALRLKPYKTAIQQLRSVIRALKENTTVTFLPTPSLILQTVRSHCVSKITFNSSCLYITDKSFQPKTINNSTPLLGNFMYLTSSKDLTKFYVQDISDLSAKISMCAPDFNMEFSSACVHGQDIVRESENSAVHVDLDFGVVADLLKWIGPHTRVKRNVKKAPCPTGTVQILVHAGPPAIKFILTNGSELEFTSNNRVSFHGVKNMRINVQLKNFYQTLLNCAVTKLPCTLRIVTEHDTLLYVASRNGLFAVENFLTEEPFQRGDPFDKNYVGNSGKSR | soluble |
| MDRMDKAAKINIINANVRNAQTGDYYYNPYKIVNKTFTDTDGKQVTLKIGITGVLPTQILVWDKANLEGKVTVDDPMEAVKTIVPQMKAAGADFILVAAHSGIGDNEYTKNEENEGYQIAGIEGVDAVATGHSHADFPNGDGTSFYAKYPGVDDVNGLINGKPVVMAGKFGDHLGIMDVKLTYTDGKWKVVNSKAKLEKIDTKSDIADKALIDMAAHDHDGTILTMFVRKLVRPL | not soluble |
| MDSEQINVNLDIGAKAVMLARRAAAAKLNNEKLPEVPDDPIFHEKHGVFTTINTYPDNQLRGCIGFPEPYYELGEGIIKSSIYAATDDPRFDPMEPDELNRVTFELSILTVPQEVTVNPEERPKAITVGKDGIIAVYNGASGLLLPQVATEYRMSAEEFLEALCEKAGLWQGCWKYKKVKISKFQAIVFGEIEPNGKVEQRAAALEHHHHHH | soluble |
| MDSGRLAVIALGGNAIAGPGMDVSVESQTAAVKRASSIIADVLADGWRSVITHGNGPQVGYLSEAFEALPPERPRQPLYIATAMTQAWIGLLLKHSLEEELRRRGLNVLVPVVISRVLVDVSDPSFNNPSKPVGPIYGREEAEELSRRYGWVFKRDPRGGFRRVVPSPRPVSIVDRDLIAEASAESPAVVALGGGGVPVVERPGGVLEPVEAVVDKDLASSLLATQLNADLLVILTDVPGVAVNYGREGERWLRRAAASELKKYLREGHFPPGSMGPKVEAAISFVERTGKPAVIGSLEEARQVLSLQAGTVVMLG | soluble |
| MDSGYWQSQFEDWLRHHHQEQDAAHDIFHFRRVWATAQTLGENSPVDWLVVLSACYFHDIVSLAKNHPQRHRSSILAAAETRRIFLRDFPDFPAEKLAGICHAIEAHSFSAKIAPTTPEAKIVQDADRLEALGAIGLARVFAVSGALGVALFDADDPFANRRPLNDKQFALDHFQTKLLKLPLTMQTERGKSLAQRNADFLVSYMAKLSAELKGDYETRDDAVIQMFATHQLEHHHHHH | soluble |
| MDSLPTSATNGPAGLSAEADAEPHARLTFDLDVDLCVIGAGLAGLSVALEAAQAGLSVAVLESGRIGWGASGHNLGSVTPGYGVPIGDLIARVGLDHASALWALTREGMEIVRARATEEAMPGVALSDGALEVSNVDIGDRLVERLQTLGVDFGSEVEGWPIDKVRDVLRTNRYFHGIHYPTAFQLDGRRYLRGLERLARQAGARIFEETPAVSIDFAGIRKRISTPNARLRASDIVLAGSVHLGAPSPRVAETLLPVWRTAALTAPLGEQLPDAIAFAGSIADTDGVDHYRIVGGDRLLWASGETTFDVAPQRLAGIIRRRIAAVFPQLGQVEIAQTFSAAVGMTVHGMPQVGELRPGLWVASGFGRQGLATTAIAGRLIARGLTHSDERWKLFSPFDLVWAGGTIGRIVGQGVYFATREGALAAGALARYRERAAARTRVRDARAEVKQEERRARVALLRAAEAANVPPPNAPSRRPVPPPSPELEHHHHHH | not soluble |
| MDTEKLRRQLIDRITDNYSEYRASLLLKDRQELIDGAGRIADTATVFQHLADRSYKPEELEYLLKFQNPLEVVTEHWADYELMPDVLDALIADTVDRQDDLTLFPLATDAPAQKPESLRKFLNVDLETVLPQIMKQKTAFYQTDLNYALDAMREGATSGDPAKQNFVLIFRQSGVECLNERDMFIGGTRSFNTLQFYHTQTREPVLTYSVELTGDGKDGLRGNLYQQDNHRLAEYAGRTASPYTDVTVTFTGGKEVRLPEKEFYYEKAASLKYLHGSIKEVRNEAEDETVVQGAVKREHDRRREMPRGYFAVHLQALDEQRIQAEADRLSSALTDLKQPNSPDKEKFMVEISVYFLPLASQHDMNRLFEKVRDQVGQTVYITPPDDTHKRYFVMRREERAQEQPERKPSIKAQLSAKPVPGDKPATKTKDREVR | not soluble |
| MDTFEKLDKVDLQILRTLQENARLTTKELAARVSLSSTPVFERLKRLESGGYIKKYIAVLDAEKLNQGFVVFCSVKLRRLNRDIAAEFTRIIQDIPEVTECYNISGSYDYLLKIHAPNMKYYQEFILNVLGTIDSLGSLESTFVMAEVKHRYGIHI | soluble |
| MDTLQGMRVFARVVDSGSFTSAAQALDLSTAQVSRLISDLEAHLQTRLLHRTTRRLALTEAGERYLERCRGILEDIEVAEAEAAGAHIRPCGRLRVQSLMGMGQHHLVPMIARYGALFPDVVIELTLSQRNPDMLEEGQDVLITGERQLPDSEFVAQRLGSIHSVLCASPGYLQQHGVPRSVDDLERHVCLRLQDPAYPEGWIFADEQGERTVSPQNTFMVNVAEVMAQAAKADLGIALLPSYVAAAALRNGELLRVLPGHAMHQRTIYALYPSRRYLDAKIRTWVDLLQQELPQAFARDETTMQSSSYCAQ | not soluble |
| MDTPPTVFSIIIPVYNRPDEVRELLESLLIQTNSDFEVIIVEDGSSVCCDKEVDRVRELLRIQYVRVPNGGPAAARNIGARMAVGEYLLILDSDVVLPSGYIAAVKKRIEQMQADAFGGPDAAAEGFSPIQKAINYAMTSFFTTGGIRGGRRVRLDKFYPRSFNFGCKLSVYRQLGGFSEEMRFGEDIDFSLRLFKAGYNVCLFPEAFVFHKRRIDFKKFFRQVYNSGIARIHLQRRHPGSMKP | not soluble |
| MDVNTASQSTTDEQMMDILLVLDKEKKTISAVKGVDENGELQTVPPENNSELLKFDRHGDFFSNFFSNMMNQLKNPTRFNFFKIPKIELPKIEPIIRDNFNHPTPENEAGIERYRVTPETVKQEAKKEQQETQAQQPQQPAKEAGAMAQTPQQPDKSKYVIDPDKVDWEALKNFGLSKEQLEKAKALEPMLRGYKSPGAFTIAGNYNSAIMKLDARLSFRHDKDGNVVLAIHGIRQKPELERPFFGHEFSKEDKANLLETGNMGRIVNLKNYITGEMIPSFVSVDKVTNELVSMRASSVQIPDEIKGVKLNKEQKQALREGKGVFLENMISNRKNPFSATVQVNADKKSLEFIYPNAKQSQEQGQKQTQQNSLVTSDGVTIPKSISGIELSRQQQQDLVNDKTIFVAGLKDKRGVEYDAYIQVNHDKKKLGFYSDNPSFDRSAVKEITPASKNRTQVAVNSEGKTNEATKKVKEPLKKGQDKPTEKQKTKQDKKEKQEQTDKPKQSRGRKR | not soluble |
| MDWGRFVEEKVREIRETVGDSKAIIALSGGVDSSTAAVLAHKAIGDRLHAVFVNTGFLRKGEPEFVVKTFRDEFGMNLHYVDAQDRFFSALKGVTDPEEKRKIIGRVFIEVFEEVAKKIGAEYLIQGTIAPDWIESQGKIKSHHNVGGLPEKLNLKLIEPLRDLYKDEVRELAKFLGLPEKIYNRMPFPGPGLAVRVIGEVTPEKIRIVREANAIVEEEVERAGLRPWQAFAVLLGVKTVGVQGDIRAYKETIAVRIVESIDGMTANAMNVPWEVLQRIAFRITSEIPEVGRVLYDITNKPPATIEFE | soluble |
| MDYSHQTSLVPCGQDKYISKNELLLHLKTYNLYYEGQNLQLRHREEEDEFIVEGLLNISWGLRRPIRLQMQDDNERIRPPPSSSSWHSGCNLGAQGTTLKPLTVPKVQISEVDAPPEGDQMPSSTDSRGLKPLQEDTPQLMRTRSDVGVRRRGNVRTPSDQRRIRRHRFSINGHFYNHKTSVFTPAYGSVTNVRINSTMTTPQVLKLLLNKFKIENSAEEFALYVVHTSGEKQKLKATDYPLIARILQGPCEQISKVFLMEKDQVEEVTYDVAQYIKFEMPVLKSFIQKLQEEEDREVKKLMRKYTVLRLMIRQRLEEIAETPATILEHHHHHH | soluble |
| MDYSKIIKEVGRGKNHARDLDQPTAYALYKAMLAGQVPALELGGILIAFRIKGESEQEILGFYQAMQEQVMSLRAPVDRPLPVVIPSYNGARKQANLTPLLALLLSRLGLPVVVHGVTEDSSRVTSAEIFQQLNIPWSLSVQEAQQRLDNGLPVFIPVSALSMQLDQQLQQRWRMGVRNSSHTLAKLATPFTHDKALRVASVSHPEYMQKVGGFFQAISAPGLLLQGTEGEVYANPLRCPPIHYINDGEQTILLDRSSESVVPELPLSKDAVITARWIEGCLAGEQPIPDSILKQLACCLVAAGQADSVELALQQIKIV | not soluble |
| MEALEEYTPTLLGEVAATLRGENELWLGLALISGKFNDLEPEQLAAAASALITETPRSDAWTDFKPSPVVLAALRPSNDLFGLLFCLKHPQPPLALWQAMTVADHLQRLNLWDLRRKLIKAQNQRAIAIPLWLEVDFMGLVEQWALGMEWENLCRQTSLDEGDLVRLFRRTVDLLWQIPQVPHLSPRLKRNARIAVQQMKRFPLLEHHHHHH | not soluble |
| MEALRASYGDSSSDSDTDDLSPASPVTANSGEKDSISLPPPPLALLDSIVSTGSLDFFSTEPGVRVRNFPHVDGNYALHVYVPVCIPPLPKKEIVCFLKKVASVVPHLHLVEADVPLSILCKDDQKFERALGREFHISLGRNVPLRVHQINSVISMLRQKLQLQKRYLIDFNKWEVFVNDDHTRSFLSLEITTSGLSEISKQIDAVNEVYKLHNLPEFYKDPRPHISLVWALGDIRTSLKGAVDVELRKLRAGGCVQNRIFTSKFCGIECKIGNKTHKICKLPDE | soluble |
| MEALRLGFSPCPNDTFIFYALVHGRVESPVPLEPVLEDVETLNRWALEGRLPLTKLSYAAYAQVRDRYVALRSGGALGRGVGPLVVARGPLQALEGLRVAVPGRHTTAYFLLSLYAQGFVPVEVRYDRILPMVAQGEVEAGLIIHESRFTYPRYGLVQVVDLGAWWEERTGLPLPLGAILARRDLGEGLIRALDEAVRRSVAYALAHPEEALDYMRAHAQELSDEVIWAHVHTYVNAFSLDVGEEGERAVARLFAEAEARGLAAPSPRPLFV | soluble |
| MEAVDLAFANYAERFARSCKGDGWRRLVERAIRLYLTPVLGKKALPAINRTDVVSVFDNMPADQVANRRNVFAVLRRLFRWAVSRGDLDRSPMEGMLEHHHHHH | not soluble |
| MEAVVDVVDVEEVVEDVDVVVVDQDAVAVVDLNVVVLVVELVAVLDVVLAADHAVVDVVADVVVDAVDVEVEVVSVVPFKNFELMKPIVHLGLKKDHLMTNVSPIIYSPFIYYHDS | not soluble |
